From patent publication US20230331815A1 (priority 2020, published 2023)

B1: Recombinant lactoferrin: recombinant lactoferrin expressed or manufactured in other species, e.g., plant species such as rice (e.g., Ventria Bioscience) (protein, UniProt P02788 20-710, looked up)
Lactotransferrin: GRRRSVQWCAVSQPEATKCFQWQRNMRKVRGPPVSCIKRDSPIQCIQAIAENRADAVTLDGGFIYEAGLAPYKLRPVAAEVYGTERQPRTHYYAVAVVKKGGSFQLNELQGLKSCHTGLRRTAGWNVPIGTLRPFLNWTGPPEPIEAAVARFFSASCVPGADKGQFPNLCRLCAGTGENKCAFSSQEPYFSYSGAFKCLRDGAGDVAFIRESTVFEDLSDEAERDEYELLCPDNTRKPVDKFKDCHLARVPSHAVVARSVNGKEDAIWNLLRQAQEKFGKDKSPKFQLFGSPSGQKDLLFKDSAIGFSRVPPRIDSGLYLGSGYFTAIQNLRKSEEEVAARRARVVWCAVGEQELRKCNQWSGLSEGSVTCSSASTTEDCIALVLKGEADAMSLDGGYVYTAGKCGLVPVLAENYKSQQSSDPDPNCVDRPVEGYLAVAVVRRSDTSLTWNSVKGKKSCHTAVDRTAGWNIPMGLLFNQTGSCKFDEYFSQSCAPGSDPRSNLCALCIGDEQGENKCVPNSNERYYGYTGAFRCLAENAGDVAFVKDVTVLQNTDGNNNEAWAKDLKLADFALLCLDGKRKPVTEARSCHLAMAPNHAVVSRMDKVERLKQVLLHQQAKFGRNGSDCPDKFCLFQSETKNLLFNDNTECLARLHGKTTYEKYLGPQYVAGITNLKKCSTSPLLEACEFLRK
modifications: expressed in rice
B2: hLF: human lactoferrin (LF), 711 amino acids, SEQ ID NO:4; 70-80 kDa basic protein of the transferrin family (protein, listed as Homo sapiens)
chain: MKLVFLVLLFLGALGLCLAGRRRRSVQWCAVSQPEATKCFQWQRNMRKVRGPPVSCIKRDSPIQCIQAIAENRADAVTLDGGFIYEAGLAPYKLRPVAAEVYGTERQPRTHYYAVAVVKKGGSFQLNELQGLKSCHTGLRRTAGWNVPIGTLRPFLNWTGPPEPIEAAVARFFSASCVPGADKGQFPNLCRLCAGTGENKCAFSSQEPYFSYSGAFKCLRDGAGDVAFIRESTVFEDLSDEAERDEYELLCPDNTRKPVDKFKDCHLARVPSHAVVARSVNGKEDAIWNLLRQAQEKFGKDKSPKFQLFGSPSGQKDLLFKDSAIGFSRVPPRIDSGLYLGSGYFTAIQNLRKSEEEVAARRARVVWCAVGEQELRKCNQWSGLSEGSVTCSSASTTEDCIALVLKGEADAMSLDEGYVYTAGKCGLVPVLAENYKSQQSSDPDPNCVDRPVEGYLAVAVVRRSDTSLTWNSVKGKKSCHTAVDRTAGWNIPMGLLFNQTGSCKFDEYFSQSCAPGSDPRSNLCALCIGDEQGENKCVPNSNERYYGYTGAFRCLAENAGDVAFVKDVTVLQNTDGNNNEAWAKDLKLADFALLCLDGKRKPVTEARSCHLAMAPNHAVVSRMDKVERLKQVLLHQQAKFGRNGSDCPDKFCLFQSETKNLLFNDNTECLARLHGKTTYEKYLGPQYVAGITNLKKCSTSPLLEACEFLRK

How the values were obtained:
[1] = test system: SARS-CoV-2 pseudovirus; format: cell-based
[2] = test system: SARS-CoV pseudovirus; details: cited from earlier work
[3] = acidic pH conditions during inflammation; cited from earlier work
[4] = test system: SARS-CoV pseudovirus; format: cell-based
[5] = biological target: ACE2 receptor (Homo sapiens, UniProt Q9BYF1); assay: Effect on ACE2 receptor enzyme activity; format: biochemical; details: binds away from the enzyme active site
Chain of ACE2 receptor (Q9BYF1 18-805): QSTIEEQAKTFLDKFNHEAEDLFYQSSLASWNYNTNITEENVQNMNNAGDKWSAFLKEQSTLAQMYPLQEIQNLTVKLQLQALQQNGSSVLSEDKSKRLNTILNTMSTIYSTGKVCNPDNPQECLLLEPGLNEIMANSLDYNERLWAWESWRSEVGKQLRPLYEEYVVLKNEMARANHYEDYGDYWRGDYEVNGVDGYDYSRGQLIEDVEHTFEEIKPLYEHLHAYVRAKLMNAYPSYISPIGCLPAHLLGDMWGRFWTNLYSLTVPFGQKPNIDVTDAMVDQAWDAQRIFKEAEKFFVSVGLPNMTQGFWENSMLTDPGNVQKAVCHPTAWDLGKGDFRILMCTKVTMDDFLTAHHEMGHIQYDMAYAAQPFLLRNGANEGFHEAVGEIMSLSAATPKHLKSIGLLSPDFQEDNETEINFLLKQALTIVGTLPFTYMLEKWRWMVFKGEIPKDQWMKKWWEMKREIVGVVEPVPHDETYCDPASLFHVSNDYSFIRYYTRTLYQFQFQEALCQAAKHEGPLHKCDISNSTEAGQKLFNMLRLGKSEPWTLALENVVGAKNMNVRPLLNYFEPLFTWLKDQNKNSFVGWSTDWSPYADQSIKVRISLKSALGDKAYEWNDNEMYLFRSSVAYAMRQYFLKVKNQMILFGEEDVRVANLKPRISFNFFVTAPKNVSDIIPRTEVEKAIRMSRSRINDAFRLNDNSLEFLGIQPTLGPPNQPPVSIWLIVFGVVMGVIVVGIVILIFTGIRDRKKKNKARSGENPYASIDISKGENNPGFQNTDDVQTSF
Excerpt: The results were proven using a small molecule inhibitor. This type of fusion protein enables both lactoferrin to bind to the HSPG on the cell surface and the receptor binding site on the S protein to bind to the ACE2 receptor on the cell surface, thereby tying up both the receptor and co-receptor on the host cell and preventing entry of the virus into the cell. […] Thus, in some embodiments, a recombinant protein as described herein, wherein the receptor binding domain of the SARS-CoV-2 spike (S) protein is fused with lactoferrin, binds to the host cell surface receptors (e.g., ACE2 receptor and HSPG) and prevent binding of the SARS-CoV-2 virus from binding and entering the host cell. This approach is different from other studies in the art, in which recombinant proteins bind to the viral particles themselves to prevent attachment of the virus to the cell. The present disclosure rather discloses a recombinant protein that binds to the host cell and effectively ties up the cell surface receptors such that the virus particles can no longer bind and infect the cell.

[6] = test system: HSPG receptor; assay: hLF cell membrane localization, confocal microscopy of VeroE6/T cells; format: cell-based, African green monkey; details: 2.5 µM hLF, cells chilled at 4° C., anti-hLF staining
Description: To visualize cell membrane localization of human lactoferrin (hLF), VeroE6/T cells (0.75×10^5 cells/well) were chilled at 4° C. for 1 hr, incubated with 2.5 µM of hLF. Cells were washed, fixed using 4% PFA (Invitrogen), stained with anti-hLF antibody, and fluorescent image was taken under confocal microscope (FIG. 10, middle row). Cell nuclei were visualized using DAPI (FIG. 10, bottom row). To visualize the cell surface and nuclei at the same time, the confocal images above (i.e., FIG. 10, middle and bottom rows) were merged and are presented in FIG. 10, top row. […] To see the effect of heparin on the binding of hLF to the cell surface (specifically the HSPG receptor), cells were co-incubated with hLF and heparin (H), and the confocal image was taken (FIG. 10, right column).

Row | Molecule | anti-viral effective concentration range ([1]; virus not named) | SARS pseudovirus entry [2] | iron affinity relative to transferrin [3] | entry of SARS-CoV virus into cells [4] | effect on ACE2 receptor enzyme activity / cellular function [5] | binding to HSPG receptor on the cell membrane [6] | inhibition of SARS-CoV-2 infection in target cells ([1]; VeroE6 or VeroE6/Tmprss2) | entry of SARS-CoV-2 virus into cells ([1]; in vitro)
1 | B1 | effective in the low µM range |  |  |  |  |  |  | 
2 | B2 |  | prevents SARS pseudovirus entry | 30 times higher than transferrin | prevent entry | does not interfere with ACE2 receptor activity | binds the HSPG receptor on the cell membrane | efficient inhibitor | prevent entry
